This passage reports Kd results from patent US20240270828A1.

pKd: −log10 of the molar value.

A word on the pKd: it is the negative decadic logarithm of the Kd, by convention in mol/L. High values mean a low Kd, low ones a high Kd.

This assay has as its target SARS-CoV-2 S (SARS-CoV-2) (UniProt P0DTC2). Description: SPR Biacore T200, hmAb captured, S injected, 1:1 fit. For orientation: In SPR one partner is held on a chip, and binding of the other changes the refractive index at the surface.
On to CV3-25 (antibody), for which the pKd is 7.88.

For the substance CC40.8 (antibody), the pKd is 8.17.

In the case of S2P6 (antibody), the pKd is 7.49.
